Measurements taken from doi:10.1101/2025.10.06.680735, “JMJD1B-mediated FEN1 demethylation allows timely switching of Okazaki fragment maturation core enzymes to avoid mutagenic flap ligation by PARP1-LIG3” (bioRxiv, 2025).
Values belong to the molecule of their own block, whether it stands above or below them.

B1: DNA ligase 1 (LIG1), in MEFs (enzyme, mouse (endogenous in MEFs), UniProt P37913 1-916, looked up)
chain: MQRSIMSFFQPTKEGKAKKPEKETPSSIREKEPPPKVALKERNQVVPESDSPVKRTGRKVAQVLSCEGEDEDEAPGTPKVQKPVSDSEQSSPPSPDTCPENSPVFNCSSPMDISPSGFPKRRTARKQLPKRTIQDTLEEQNEDKTKTAKKRKKEEETPKESLAEAEDIKQKEEKEGDQLIVPSEPTKSPESVTLTKTENIPVCKAGVKLKPQEEEQSKPPARGAKTLSSFFTPRKPAVKTEVKQEESGTLRKEETKGTLDPANYNPSKNNYHPIEDACWKHGQKVPFLAVARTFEKIEEVSARLKMVETLSNLLRSVVALSPPDLLPVLYLSLNRLGPPQQGLELGVGDGVLLKAVAQATGRQLESIRAEVAEKGDVGLVAENSRSTQRLMLPPPPLTISGVFTKFCDIARLTGSASMAKKMDIIKGLFVACRHSEARYIARSLSGRLRLGLAEQSVLAALAQAVSLTPPGQEFPTVVVDAGKGKTAEARKMWLEEQGMILKQTFCEVPDLDRIIPVLLEHGLERLPEHCKLSPGVPLKPMLAHPTRGVSEVLKRFEEVDFTCEYKYDGQRAQIHVLEGGEVKIFSRNQEDNTGKYPDIISRIPKIKHPSVTSFILDTEAVAWDREKKQIQPFQVLTTRKRKEVDASEIQVQVCLYAFDLIYLNGESLVRQPLSRRRQLLRENFVETEGEFVFTTSLDTKDTEQIAEFLEQSVKDSCEGLMVKTLDVDATYEIAKRSHNWLKLKKDYLDGVGDTLDLVVIGAYLGRGKRAGRYGGFLLAAYDEESEELQAICKLGTGFSDEELEEHHQSLQALVLPTPRPYVRIDGAVAPDHWLDPSIVWEVKCADLSLSPIYPAARGLVDKEKGISLRFPRFIRVRKDKQPEQATTSNQVASLYRKQSQIQNQQSSDLDSDVEDY
notes: DNA ligase 1, mouse, endogenous in MEFs; source: endogenous, mouse embryonic fibroblasts (fixed cells)

Legend:
[1] = molecular target: DNA ligase 1 (LIG1), in MEFs (mouse (endogenous in MEFs)) (UniProt P37913); assay: FRET or BRET; FRET microscopy in fixed FEN1 R192Q MEFs; Alexa Fluor 568 (donor) and Alexa Fluor 647 (acceptor) secondary antibodies; corrected FRET intensity at PCNA foci
[2] = molecular target: DNA ligase 1 (LIG1), in MEFs (mouse (endogenous in MEFs)) (UniProt P37913); assay: proximity ligation; Duolink PLA on endogenous proteins in fixed FEN1 R192Q MEFs; foci per nucleus
[3] = molecular target: proliferating cell nuclear antigen (PCNA), in MEFs (mouse (endogenous in MEFs)) (UniProt P17918); assay: as above
[4] = molecular target: DNA ligase 1 (LIG1), in MEFs (mouse (endogenous in MEFs)) (UniProt P37913); assay: proximity ligation; Duolink PLA on endogenous proteins in fixed WT MEFs; foci per nucleus
[5] = molecular target: proliferating cell nuclear antigen (PCNA), in MEFs (mouse (endogenous in MEFs)) (UniProt P17918); assay: as above
[6] = molecular target: proliferating cell nuclear antigen (PCNA), in MEFs (mouse (endogenous in MEFs)) (UniProt P17918); assay: proximity ligation; Duolink PLA on endogenous proteins in fixed Jmjd1b-/- MEFs; foci per nucleus
[7] = molecular target: DNA ligase 1 (LIG1), in MEFs (mouse (endogenous in MEFs)) (UniProt P37913); assay: FRET or BRET; FRET microscopy in fixed Jmjd1b-/- MEFs; Alexa Fluor 568 (donor) and Alexa Fluor 647 (acceptor) secondary antibodies; corrected FRET intensity at PCNA foci
[8] = molecular target: DNA ligase 1 (LIG1), in MEFs (mouse (endogenous in MEFs)) (UniProt P37913); assay: FRET or BRET; FRET microscopy in fixed WT MEFs; primary antibodies with Alexa Fluor 568 (donor) and Alexa Fluor 647 (acceptor) secondary antibodies; corrected FRET intensity at PCNA foci
[9] = molecular target: T1, proliferating cell nuclear antigen (PCNA), in MEFs (mouse (endogenous in MEFs), UniProt P17918 1-261); assay: proximity ligation; Duolink PLA on endogenous proteins in fixed WT MEFs; foci per nucleus; settings: partners not purified
T1 construct: PCNA, mouse, endogenous in MEFs; source: endogenous, mouse embryonic fibroblasts (fixed cells)

[10] = molecular target: Flap endonuclease 1 (FEN1), in MEFs (mouse (endogenous in MEFs)) (UniProt P39749); assay: as above
[11] = molecular target: B1; assay: as above; settings: partners not purified
[12] = molecular target: Flap endonuclease 1 (FEN1), in MEFs (mouse (endogenous in MEFs)) (UniProt P39749); assay: FRET or BRET; FRET microscopy in fixed WT MEFs; primary antibodies with Alexa Fluor 568 (donor) and Alexa Fluor 647 (acceptor) secondary antibodies; corrected FRET intensity at PCNA foci

Sequence of proliferating cell nuclear antigen (PCNA), in MEFs (mouse (endogenous in MEFs)) (P17918 whole entry): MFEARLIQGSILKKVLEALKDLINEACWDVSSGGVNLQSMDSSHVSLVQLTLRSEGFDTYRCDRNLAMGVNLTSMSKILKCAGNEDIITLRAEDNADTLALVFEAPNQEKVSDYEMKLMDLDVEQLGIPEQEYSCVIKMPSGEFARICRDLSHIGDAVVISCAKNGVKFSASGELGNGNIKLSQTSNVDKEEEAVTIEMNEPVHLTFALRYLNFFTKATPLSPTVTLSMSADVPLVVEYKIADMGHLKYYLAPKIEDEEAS
T1 sequence (P17918 whole entry): as above
Sequence of Flap endonuclease 1 (FEN1), in MEFs (mouse (endogenous in MEFs)) (P39749 whole entry): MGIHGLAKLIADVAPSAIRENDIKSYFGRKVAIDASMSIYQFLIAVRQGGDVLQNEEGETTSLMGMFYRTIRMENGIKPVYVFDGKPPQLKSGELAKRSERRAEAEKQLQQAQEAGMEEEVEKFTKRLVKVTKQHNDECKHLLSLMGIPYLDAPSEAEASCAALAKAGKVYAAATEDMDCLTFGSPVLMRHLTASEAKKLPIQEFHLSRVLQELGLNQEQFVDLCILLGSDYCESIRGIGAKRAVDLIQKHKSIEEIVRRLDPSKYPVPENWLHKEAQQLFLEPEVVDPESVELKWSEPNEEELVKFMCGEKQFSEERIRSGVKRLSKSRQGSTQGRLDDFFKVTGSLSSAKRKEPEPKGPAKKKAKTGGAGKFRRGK

Molecule: Flap endonuclease 1 (FEN1), in MEFs (from UniProt P39749 1-378) (enzyme)
- PLA foci per MEF (PLA foci per MEF) [4]: 20
- PLA foci per nucleus [4]: 18.8 foci/nucleus
- PLA foci per MEF (PLA foci per MEF) [5]: 40
- PLA foci per nucleus [5]: 70.3 foci/nucleus
- PLA foci per nucleus [6]: 76.2 foci/nucleus
- FEN1-LIG1 FRET signal at PCNA foci, early middle S phase [7]: 4.8
- FEN1-LIG1 FRET signal at PCNA foci, late S phase [7]: 7.4
- FEN1-LIG1 FRET level at PCNA foci, throughout S phase [8]: 5.8
- FEN1-LIG1 FRET signal at PCNA foci, early middle S phase [8]: 5.6
- FEN1-LIG1 FRET signal at PCNA foci, late S phase [8]: 6.3
- FRET signal (corrected FRET intensity at PCNA foci) [8]: 18.6

Molecule: B1
- PLA foci per MEF [9]: ~40 PLA foci per MEF

The next lines start with the values.

- FEN1-LIG1 FRET level at PCNA foci, throughout S phase [1]: 2
- PLA foci per nucleus [2]: 9.8 foci/nucleus
- PLA foci per nucleus [3]: 31.7 foci/nucleus
Molecule: FEN1 R192Q, in FEN1 R192Q MEFs (from UniProt P39749 1-378) (enzyme)

- PLA foci per MEF (PLA foci per MEF) [10]: 20
- PLA foci per MEF [11]: < 5 PLA foci per MEF
- PLA foci per MEF [9]: ~40 PLA foci per MEF
- FRET signal (corrected FRET intensity at PCNA foci) [12]: 20.1
B2: POLD1 (the catalytic and PCNA-binding subunit of Polδ), in MEFs (enzyme, mouse (endogenous in MEFs), UniProt P52431 1-1105, looked up)
chain: MDCKRRQGPGPGVPPKRARGHLWDEDEPSPSQFEANLALLEEIEAENRLQEAEEELQLPPEGTVGGQFSTADIDPRWRRPTLRALDPSTEPLIFQQLEIDHYVGSAPPLPEGPLPSRNSVPILRAFGVTDEGFSVCCHIQGFAPYFYTPAPPGFGAEHLSELQQELNAAISRDQRGGKELSGPAVLAIELCSRESMFGYHGHGPSPFLRITLALPRLMAPARRLLEQGVRVPGLGTPSFAPYEANVDFEIRFMVDADIVGCNWLELPAGKYVRRAEKKATLCQLEVDVLWSDVISHPPEGQWQRIAPLRVLSFDIECAGRKGIFPEPERDPVIQICSLGLRWGEPEPFLRLALTLRPCAPILGAKVQSYEREEDLLQAWADFILAMDPDVITGYNIQNFDLPYLISRAQALKVDRFPFLGRVTGLRSNIRDSSFQSRQVGRRDSKVISMVGRVQMDMLQVLLREHKLRSYTLNAVSFHFLGEQKEDVQHSIITDLQNGNEQTRRRLAVYCLKDAFLPLRLLERLMVLVNNVEMARVTGVPLGYLLTRGQQVKVVSQLLRQAMRQGLLMPVVKTEGSEDYTGATVIEPLKGYYDVPIATLDFSSLYPSIMMAHNLCYTTLLRPGAAQKLGLKPDEFIKTPTGDEFVKSSVRKGLLPQILENLLSARKRAKAELAQETDPLRRQVLDGRQLALKVSANSVYGFTGAQVGKLPCLEISQSVTGFGRQMIEKTKQLVESKYTVENGYDANAKVVYGDTDSVMCRFGVSSVAEAMSLGREAANWVSSHFPSPIRLEFEKVYFPYLLISKKRYAGLLFSSRSDAHDKMDCKGLEAVRRDNCPLVANLVTSSLRRILVDRDPDGAVAHAKDVISDLLCNRIDISQLVITKELTRAAADYAGKQAHVELAERMRKRDPGSAPSLGDRVPYVIIGAAKGVAAYMKSEDPLFVLEHSLPIDTQYYLEQQLAKPLLRIFEPILGEGRAESVLLRGDHTRCKTVLTSKVGGLLAFTKRRNCCIGCRSVIDHQGAVCKFCQPRESELYQKEVSHLNALEERFSRLWTQCQRCQGSLHEDVICTSRDCPIFYMRKKVRKDLEDQERLLQRFGPPGPEAW
notes: POLD1, catalytic subunit of DNA polymerase delta, mouse, endogenous in MEFs; source: endogenous, mouse embryonic fibroblasts (fixed cells)
